For orientation: pKa means the negative logarithm of the acid dissociation constant. The term Ki denotes a dissociation constant, usually derived from enzyme kinetics or from competition with a known ligand. A low value points to higher affinity.

The text below walks through data of publication PMC3817844 (Angewandte Chemie (International ed. in English), 2013).

In one data set the target is Glu92 (UniProt position 93, EAFRVEDKDGN). As to the kind of experiment: kinetics. As to conditions: Ca2+-bound (active) protein; the protein is inactive without Ca2+.
The compound “CaM F92E 5R (round 5 variant), affinity tag removed (Gallus gallus; F92E;M144R;H107I;L112R;I85L;A128T)” came in with a pKa of 6.47±0.03. Same read-out and setting: the figure for “CaM F92E 5R (round 5 variant), with affinity tag (Gallus gallus; F92E;M144R;H107I;L112R;I85L;A128T)” is 6.60±0.02; for “CaM F92E (full-length calmodulin F92E) (Gallus gallus; F92E)” it is 6.98±0.05; for “CaM F92E round 1 variant (F92E/M144R) (Gallus gallus; F92E;M144R)” it is 7.21±0.06.

“CaM F92E round 2 variant (F92E/M144R/H107I), tag removed (Gallus gallus; F92E;M144R;H107I)”: the pKa is given as 6.73±0.03. The same measure, in the same setting: as for “CaM F92E round 3 variant (F92E/M144R/H107I/L112R) (Gallus gallus; F92E;M144R;H107I;L112R)”, the figure is 6.70±0.03; as for “CaM F92E round 4 variant (F92E/M144R/H107I/L112R/I85L) (Gallus gallus; F92E;M144R;H107I;L112R;I85L)”, 6.93±0.03.

“CaM F92E round 6 variant (Gallus gallus; F92E;M144R;H107I;L112R;I85L;A128T;M124L)” registered a pKa of 6.67±0.01.

Staying with this data set, now noted: Ca2+-bound (active) protein; the protein is inactive without Ca2+; cited from earlier work.
“AlleyCat (calmodulin C-terminal domain F92E) (Gallus gallus; F92E)”: the pKa is 6.9±0.1.

The target in another data set is Glu92 (UniProt position 93, EQFRVEDKDGN). As to the kind of experiment: kinetics. To be noted: Ca2+-bound (active) protein; the protein is inactive without Ca2+.
Compound “AlleyCat7 (calmodulin C-terminal domain with round 7 mutations) (Gallus gallus; F92E;M144R;H107I;L112R;I85L;A128T;M124L;A88Q)” showed a pKa of 6.39±0.02.

For “CaM F92E round 7 variant, tag removed (Gallus gallus; F92E;M144R;H107I;L112R;I85L;A128T;M124L;A88Q)”, the pKa worked out at 6.43±0.02.

For the next data set, the target named is AlleyCat; AlleyCat7 (Gallus gallus, UniProt P62149, A129T/A89Q/F93E/H108I/I86L/L113R/M125L/M145R). As to the kind of experiment: inhibition of Kemp elimination.
Conditions: not given
The data set is classed as biochemical.
`O=[N+]([O-])c1ccc2[nH]nnc2c1` [5-NBT, 5-nitro-benzotriazole] had a Ki of 18 µM.
